Experimental data published in IntAct's records for PubMed 23737971.

B1: Ras-related protein Rab-6A (Homo sapiens), P20340-1 (parent)
chain: MSTGGDFGNPLRKFKLVFLGEQSVGKTSLITRFMYDSFDNTYQATIGIDFLSKTMYLEDRTVRLQLWDTAGQERFRSLIPSYIRDSTVAVVVYDITNVNSFQQTTKWIDDVRTERGSDVIIMLVGNKTDLADKRQVSIEEGERKAKELNVMFIETSAKAGYNVKQLFRRVAAALPGMESTQDRSREDMIDIKLEKPQEQPVSEGGCSC
partner: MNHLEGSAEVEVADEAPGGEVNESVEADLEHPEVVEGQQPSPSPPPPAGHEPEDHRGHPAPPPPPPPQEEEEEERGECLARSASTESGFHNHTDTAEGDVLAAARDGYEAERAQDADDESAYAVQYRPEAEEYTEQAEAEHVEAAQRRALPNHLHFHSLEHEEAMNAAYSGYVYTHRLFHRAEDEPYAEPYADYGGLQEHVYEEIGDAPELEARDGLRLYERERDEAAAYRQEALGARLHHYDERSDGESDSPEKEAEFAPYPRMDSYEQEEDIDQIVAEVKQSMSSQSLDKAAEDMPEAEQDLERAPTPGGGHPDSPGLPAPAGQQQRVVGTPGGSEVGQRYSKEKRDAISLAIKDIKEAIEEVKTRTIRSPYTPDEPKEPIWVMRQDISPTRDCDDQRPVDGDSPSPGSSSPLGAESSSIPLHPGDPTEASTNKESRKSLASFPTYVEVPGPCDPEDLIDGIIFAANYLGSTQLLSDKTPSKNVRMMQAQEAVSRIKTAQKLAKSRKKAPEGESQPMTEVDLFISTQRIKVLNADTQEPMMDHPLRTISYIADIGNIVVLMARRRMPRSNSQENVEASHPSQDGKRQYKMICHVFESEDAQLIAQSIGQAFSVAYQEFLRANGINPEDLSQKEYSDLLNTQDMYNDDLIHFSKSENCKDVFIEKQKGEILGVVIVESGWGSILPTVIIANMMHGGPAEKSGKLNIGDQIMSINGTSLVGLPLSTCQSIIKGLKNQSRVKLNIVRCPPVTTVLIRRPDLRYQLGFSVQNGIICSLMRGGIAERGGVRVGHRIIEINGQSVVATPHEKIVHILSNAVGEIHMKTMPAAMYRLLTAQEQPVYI
B2: Ras-related protein Rab-6B (Homo sapiens), Q9NRW1 (parent)
chain: MSAGGDFGNPLRKFKLVFLGEQSVGKTSLITRFMYDSFDNTYQATIGIDFLSKTMYLEDRTVRLQLWDTAGQERFRSLIPSYIRDSTVAVVVYDITNLNSFQQTSKWIDDVRTERGSDVIIMLVGNKTDLADKRQITIEEGEQRAKELSVMFIETSAKTGYNVKQLFRRVASALPGMENVQEKSKEGMIDIKLDKPQEPPASEGGCSC
partner: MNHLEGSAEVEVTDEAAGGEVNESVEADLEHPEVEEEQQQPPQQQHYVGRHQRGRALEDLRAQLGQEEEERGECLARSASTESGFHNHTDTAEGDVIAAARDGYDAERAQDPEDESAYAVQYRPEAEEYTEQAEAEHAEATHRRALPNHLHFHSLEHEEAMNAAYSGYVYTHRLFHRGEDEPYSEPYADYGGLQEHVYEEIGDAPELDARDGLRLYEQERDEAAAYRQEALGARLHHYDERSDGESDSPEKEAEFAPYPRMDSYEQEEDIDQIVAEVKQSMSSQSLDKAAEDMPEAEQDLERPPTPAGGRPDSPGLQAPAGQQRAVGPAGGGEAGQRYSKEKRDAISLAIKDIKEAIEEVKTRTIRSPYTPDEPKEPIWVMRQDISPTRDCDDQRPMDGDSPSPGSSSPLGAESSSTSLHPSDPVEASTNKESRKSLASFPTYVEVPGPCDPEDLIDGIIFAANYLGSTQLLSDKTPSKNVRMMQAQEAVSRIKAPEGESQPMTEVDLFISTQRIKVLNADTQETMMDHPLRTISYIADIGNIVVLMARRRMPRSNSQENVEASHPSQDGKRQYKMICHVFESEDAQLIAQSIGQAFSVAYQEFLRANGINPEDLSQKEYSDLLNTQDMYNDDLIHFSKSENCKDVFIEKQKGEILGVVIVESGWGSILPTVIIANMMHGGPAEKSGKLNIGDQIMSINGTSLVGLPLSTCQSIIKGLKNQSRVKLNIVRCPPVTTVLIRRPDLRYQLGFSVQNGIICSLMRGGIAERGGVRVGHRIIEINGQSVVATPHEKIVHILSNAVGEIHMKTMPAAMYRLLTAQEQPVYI
B3: Ras-related protein Rab-6A (Homo sapiens), P20340-1 (parent)
chain: B1 chain
partner: B2 partner

Variants of: B1
Details: with apba1_mouse Apba1, B2RUJ5

| effect of a mutation on the interaction | Variant |
| --- | --- |
| disrupting interaction | T27N |

Variants of: B2
Details: with APBA1, Q02410-2

| effect of a mutation on the interaction | Variant |
| --- | --- |
| disrupting interaction | T27N |

Variants of: B3
Details: with APBA1, Q02410-2

| effect of a mutation on the interaction | Variant |
| --- | --- |
| disrupting interaction | T27N |
